Experimental data reported in the nanobody polyreactivity screen of Harvey et al. (2022).

Experiment: yeast display, Sf9 membrane polyspecificity reagent, FACS + sequencing; frameworks hold sequencing errors
Summary of the method: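 Galactose induction of a Saccharomyces cerevisiae BJ5465 synthetic nanobody display library ran 36–48 hours. The cells were then stained for 1 hour at 4 °C with 10% biotinylated, detergent-solubilized Sf9 membrane reagent, pulled down on streptavidin microbeads and FACS-sorted into low and high (top ~1%) gates on expression and reagent-binding fluorescence. Labels for polyreactivity follow the gate of origin.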
With “QVQLVESGGGLVQAGGSLRLSCAASGSTFDIYVMGWYRQAPGKERELVAAISRVGNTSYADSVKGRFTISRDNAKNTVYLQMNRLNPEDTAVYYCAADRADFFVIRTIDPYDYWGQGTQVTVSS” the “polyreactivity (PSR sort gate)” value was “low polyreactivity”. With “QVQLVESGGGLVQAGGSLRLSCAASGSTFDLYAMGWYRQATGKERELVAAISRSGGSTYYADSVKGRFTISRDNEKNTVYLQMNSLKPDDTAVYYCNARWPLGVSRGGMGYWGQGTQVTVSS” the “polyreactivity (PSR sort gate)” value was “high polyreactivity”. In the case of “QVQLVESGGGLVQAGGSLRLSCAASGSTFDPNAKGWYRQEPGKERELVAAISKSGGRTYYADSVKGRFTISRDNAKNTVYLQMNSLKPEDTAVYYCNARFGSRYNFFGLRYNYWGLGTQVTVSS”, the “polyreactivity (PSR sort gate)” value is reported as “high polyreactivity”. For “QVQLVESGGGLVQAGGSLRLSCAASGSTFDPYAMGWYRQAPGIERELVAAITGRGGSTYYADSVKGRFTISRDNAKNTVYLQMNSLKPEDTAVYYCNAEGDKRRDRYDYWGQGSQVTVSS”, the “polyreactivity (PSR sort gate)” value was “low polyreactivity”. For “QVQLVESGGGLVQAGGSLRLSCAASGSTFDRNAMGWYRQAPGKERELVASITWTGGSTYYADSVKGRFTISRDNAKNTVYLQMNSLKPEDTAVYYCNADLLYLDYLYGLDYWGQGTQVTVSS”, the “polyreactivity (PSR sort gate)” value was “high polyreactivity”. In the case of “QVQLVESGGGLVQAGGSLRLSCAASGSTFDRNVMGWYRQAPGKERELVAAISRVSSTNYADSVKGRFTISRDNAKNTVYLQMISLKPEDTAVYYCAVDNISNWAVENDYWGQGTQVTVSS”, the “polyreactivity (PSR sort gate)” value is reported as “low polyreactivity”. In the case of “QVQLVESGGGLVQAGGSLRLSCAASGSTFDRYAMGWYRQAPGKERELVASISRSGGNTYYADSVKGRFTISRDNAKNTVYVPMNSLKPDDTAGYYSNKPIGRYSRNRYGYWGQATQVTVSS”, the “polyreactivity (PSR sort gate)” value is reported as “high polyreactivity”. With “QVQLVESGGGLVQAGGSLRLSCAASGSTFDRYGMGWYRQAPGKERELVAAISWSGGSTYYADSVKGRFTFSRDNAKNTVYLQMNSLKPEDTAVYYCNAVLYRFAYNYWGQGTQVTVSS” the “polyreactivity (PSR sort gate)” value was “low polyreactivity”. In the case of “QVQLVESGGGLVQAGGSLRLSCAASGSTFDRYTMGWYRQAPGKERELVAAISESDGSTYYADSVKGRFTISRDNAKNTVYLLMNSLKPEDTAVYFCAAEWTHYWWYQYDFWGQGTQVTVSS”, the “polyreactivity (PSR sort gate)” value is reported as “high polyreactivity”. For “QVQLVESGGGLVQAGGSLRLSCAASGSTFDSNTMGWYRQAPGKERELVAAITVSGGSTHYADSVKGRFTNSRYNAKNTVYLQMNSLKPEDTAVYYCNRRSYGYGAFSGYDYWGQGTQVTVSS”, the “polyreactivity (PSR sort gate)” value was “low polyreactivity”. For “QVQLVESGGGLVQAGGSLRLSCAASGSTFDSYAIGWYRQAPGKERELVAGISIVGSTNYADSVKGRFTISPDNAKNTVYLQLNSLKPEDTAVYYCNAGYFRGSNAIKVRLTYDHWGQGTQVTVSS”, the “polyreactivity (PSR sort gate)” value was “low polyreactivity”. With “QVQLVESGGGLVQAGGSLRLSCAASGSTFDSYAMGWYRQAPGKERELVAAISRSGGRTYYADSVKGRFTISRDNAKNTVYLQMNSLKPEDTAVYYCAAPVKVGHSLSGGDYWGQGTQVTVSS” the “polyreactivity (PSR sort gate)” value was “high polyreactivity”. In the case of “QVQLVESGGGLVQAGGSLRLSCAASGSTFDTYAMGWYRQAPGKERELVAAISRSGTSTYYADSVKGRFTISRDNAKNTVYLQMNSLKPEDTAVYFCNNPWYSYRYGGVGYGYWGQGTQVTVSS”, the “polyreactivity (PSR sort gate)” value is reported as “low polyreactivity”. In the case of “QVQLVESGGGLVQAGGSLRLSCAASGSTFDYNAMGWYRQAPGKERELVAAISSGGRTYYADSVKGRFTISRDNAKNTVYLQMNSLKPEDTAVYYCAKARTLRYDSWGQGTQVTVSS”, the “polyreactivity (PSR sort gate)” value is reported as “low polyreactivity”. In the case of “QVQLVESGGGLVQAGGSLRLSCAASGSTFDYYAMGWNRQAPGKERDLVAASTSGSSTYYADSVKGRITISRDNAQNTVYLEMNSLKPEDTAVYYCAARSVYGSSFLSYGYWGQGTQLTVSS”, the “polyreactivity (PSR sort gate)” value is reported as “high polyreactivity”. For “QVQLVESGGGLVQAGGSLRLSCAASGSTFDYYAMGWYRQAPGKERDLVAGITSDGSTDYADSVKGRFTISRDNAKNTVYLQMNSLKPEDTAVYYCAVDGDPVFYTTYYYSYYYWGQGTQVTVSS”, the “polyreactivity (PSR sort gate)” value was “low polyreactivity”. In the case of “QVQLVESGGGLVQAGGSLRLSCAASGSTFDYYAMGWYRQAPGKERELVAAIRWSSGRTYYADSVKGRFTISRDNAKNTVYLQMNSLKPEDTAVYYCAARARGRYKRVALDYWGQGTQVTVSS”, the “polyreactivity (PSR sort gate)” value is reported as “high polyreactivity”. In the case of “QVQLVESGGGLVQAGGSLRLSCAASGSTFDYYAMGWYRQAPGKERELVAAISSTDGSTFYADSVKGRFTISRDNAKNTVYLQMNSLKPEDTAVYYCAVVGYYYPWPNGYDYWGQGTQVTVSS”, the “polyreactivity (PSR sort gate)” value is reported as “low polyreactivity”. With “QVQLVESGGGLVQAGGSLRLSCAASGSTFDYYTMGGYRQAPGKERELVAAISSSGGSTYYADSVKGRFTISRDNAKNNVYLQMISLKPEDTAVYYCAADASPYGDVYDYWGQGTQVTVSS” the “polyreactivity (PSR sort gate)” value was “low polyreactivity”. For “QVQLVESGGGLVQAGGSLRLSCAASGSTFDYYTMGWYRQAPGKERELVAAISSSGGSTYYADSVKGRFTISRDNAKNTVYLQMNSLKPEDTAVYYCAADPSPYGDEYDYWGQGTQVTVSS”, the “polyreactivity (PSR sort gate)” value was “low polyreactivity”. With “QVQLVESGGGLVQAGGSLRLSCAASGSTFDYYTMGWYRQAPGKERELVAAITSGGSTNYADSVKGRFTISRDNAKNTVYLQMNSLKPEDTAVYYCAADEWYNNYNCTTYGPEYDSWGQGTQVTVSS” the “polyreactivity (PSR sort gate)” value was “low polyreactivity”. With “QVQLVESGGGLVQAGGSLRLSCAASGSTFEANAKGWYRQAPGKERELVAVITWTGGSTYYADSVKGRFTISRDYAKNTVYLQMNSLKPEDTAVYYCAAKFHRFAWYSHYDYWGQGTQVTVSS” the “polyreactivity (PSR sort gate)” value was “low polyreactivity”. With “QVQLVESGGGLVQAGGSLRLSCAASGSTFEAYAMGWYRQAPGKERELVAAIRSSGSTSYADSVKGRFTISRDNAKNTVYLQMNSLKPVDTAVYYCAARVRGYPRYKRDYWGQGTQVTVSS” the “polyreactivity (PSR sort gate)” value was “high polyreactivity”. For “QVQLVESGGGLVQAGGSLRLSCAASGSTFEAYAMGWYRQAPGKERELVAAITWSSGSTYYADSVKGRFTISRDNAKNTVYLQMNSLKPEDTAVYYCNKDWLAYDSLRVPSTIAFDYWGQGTQVTVSS”, the “polyreactivity (PSR sort gate)” value was “low polyreactivity”. With “QVQLVESGGGLVQAGGSLRLSCAASGSTFEDNAMGWYRQAPGKERELVAAITSGGNTYYADSVKGRFTISRDNAMNTVYLQMNSLKPDDTAVYYCNAVPFYYDFDYWGQGTQVTVSS” the “polyreactivity (PSR sort gate)” value was “low polyreactivity”. With “QVQLVESGGGLVQAGGSLRLSCAASGSTFEFNDMGRYRPAPGKERELVASIRHSDGSRYYADSVKGRFTISRDNAKNTVYLQMIILKPEDTAVYDCNKAFQWSGGQVSYDYWGQGTQVTVSS” the “polyreactivity (PSR sort gate)” value was “low polyreactivity”. In the case of “QVQLVESGGGLVQAGGSLRLSCAASGSTFEGNAMGWYRQAPGKERELVAAITSGGSTNYADSVKGRFTISRDNAKNNVYLQMNSLKPEDTAVYYCAADTVSFSILYDYWGQGTQVTVSS”, the “polyreactivity (PSR sort gate)” value is reported as “low polyreactivity”. For “QVQLVESGGGLVQAGGSLRLSCAASGSTFELYAMGWYRQAPGKERDFVAAITYDSTYYADSVKGRFTISRDNAKNTVYLQMNSLKPEDTAVYYCAAAYWHYYYGWDMYYWGQGTQVTVST”, the “polyreactivity (PSR sort gate)” value was “high polyreactivity”. In the case of “QVQLVESGGGLVQAGGSLRLSCAASGSTFENYAMGWSRQAPGKERELVAAISWSGGSTYYADSVKGRFTISRDNAKNTVYLQMNSLKPEDTAVYYCNAELYLRWGVTVTFDYWGQGTQVTVSS”, the “polyreactivity (PSR sort gate)” value is reported as “low polyreactivity”. In the case of “QVQLVESGGGLVQAGGSLRLSCAASGSTFEPYARGWYRQAPGKERELVAAISSSGSTNYADSVKGRFTISRDNAKNTVYLQMNSLKPEDTAVYYCNARRQRSPIEVCERGYWGQGTQVTVSS”, the “polyreactivity (PSR sort gate)” value is reported as “high polyreactivity”.
